Experimental data as given in article PMC5385945 (Molecular Biology of the Cell, 2017).

Biological target: T1, Qc-SNARE Vam7 (wild type, naturally soluble) (S. cerevisiae, UniProt P32912 1-316)
T1 sequence (looked up): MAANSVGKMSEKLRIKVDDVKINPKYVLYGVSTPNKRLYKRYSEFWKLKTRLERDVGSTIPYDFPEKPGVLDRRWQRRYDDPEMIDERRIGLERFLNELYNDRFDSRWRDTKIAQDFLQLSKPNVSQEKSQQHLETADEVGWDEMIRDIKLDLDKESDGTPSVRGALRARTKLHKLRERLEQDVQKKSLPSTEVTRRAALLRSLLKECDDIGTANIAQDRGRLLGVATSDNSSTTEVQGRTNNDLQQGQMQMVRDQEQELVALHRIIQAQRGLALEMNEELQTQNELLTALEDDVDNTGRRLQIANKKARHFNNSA
Test: co-flotation with proteoliposomes

B1: Rab GTPase Ypt7, GTP-loaded, bound to proteoliposomes (natural protein, S. cerevisiae, UniProt P32939 1-208, looked up)
chain: MSSRKKNILKVIILGDSGVGKTSLMHRYVNDKYSQQYKATIGADFLTKEVTVDGDKVATMQVWDTAGQERFQSLGVAFYRGADCCVLVYDVTNASSFENIKSWRDEFLVHANVNSPETFPFVILGNKIDAEESKKIVSEKSAQELAKSLGDIPLFLTSAKNAINVDTAFEEIARSALQQNQADTEAFEDDYNDAINIRLDGENNSCSC
Does B1 bind?
Result: binds
